In test [1] the target is T1, human Jagged1 (human, UniProt P78504 34-1218).
T1 construct: whole, on cells
As to the kind of experiment: FACS, 5 µg/ml, 293T cells with human Jagged1 vs mock. In a few lines: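 Flow cytometry; 1 h antibody staining at 4 °C in PBS/2% FCS. Value = geometric mean fluorescence shift over mock-transfected cells.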
(In general: A flow cytometer gives signals particle by particle.)

The target of test [2] is T2, human soluble DLL4 (R&D systems catalog #1056-D4-050) (human, UniProt Q9NR61 27-524).
T2 construct: Catalog number as printed; perhaps the same product as #1506-D4; also called antigen DLL4
T2 sequence (Q9NR61 27-524 limits assumed): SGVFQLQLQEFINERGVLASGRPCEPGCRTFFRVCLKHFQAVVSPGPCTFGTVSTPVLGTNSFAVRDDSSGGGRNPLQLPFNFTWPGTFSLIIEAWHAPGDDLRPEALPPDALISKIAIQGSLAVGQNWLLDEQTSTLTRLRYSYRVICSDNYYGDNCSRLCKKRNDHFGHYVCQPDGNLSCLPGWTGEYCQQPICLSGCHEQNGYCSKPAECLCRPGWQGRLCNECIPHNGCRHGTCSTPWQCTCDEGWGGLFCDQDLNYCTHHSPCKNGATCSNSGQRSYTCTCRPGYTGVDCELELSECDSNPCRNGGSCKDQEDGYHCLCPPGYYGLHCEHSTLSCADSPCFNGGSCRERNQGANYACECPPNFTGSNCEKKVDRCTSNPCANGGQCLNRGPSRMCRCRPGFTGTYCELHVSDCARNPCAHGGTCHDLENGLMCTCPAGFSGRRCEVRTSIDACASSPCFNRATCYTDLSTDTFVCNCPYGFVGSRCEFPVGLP
As to the kind of experiment: Biacore T100, antibody immobilised, soluble human DLL4 as analyte. The essentials:
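Anti-DLL4 antibodies amine-coupled to CM5 chip (<200 RU). Soluble DLL4 injected from 32-64 nM in 3-fold dilutions, in triplicate, in HBS-P with 0.1 mg/ml BSA at 23° C. ka, kd and KD from a global 1:1 fit.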
In general terms: In SPR one partner is held on a chip, and binding of the other changes the refractive index at the surface.

Test [3] has as its target T3, full length human DLL4 (human, UniProt Q9NR61 27-685).
T3 construct: whole, on cells; also called native DLL4 expressed in HEK293 cells
As to the kind of experiment: FACS competition, unlabeled antibody vs competitor Alexa-647 21H3RK, HEK293 cells with human DLL4. As for the experimental part: The ability of the purified DLL4 antibodies to inhibit the binding of other DLL4 antibodies to human DLL4 was assessed using a FACS assay. Briefly, antibodies were directly labelled with Alexa-647 using a commercially available labelling kit (e.g. Molecular Probes catalog #A30009, A-20186) as per the manufacturer's instructions. To determine the level of cross-competition, unlabelled anti-DLL4 antibodies (final concentration: 10-0.01 μg/ml) diluted in PBS containing 2% FCS were added to DLL4-expressing HEK 293 cells (as described in example 6; 50000 cells/well diluted in PBS containing 2% FCS) and incubated for 1 h at 4° C. Subsequently, Alexa-647 labeled anti-DLL4 antibodies were added at a final concentration of 0.1 μg/ml and plates were incubated for a further 1 h at 4° C. prior to washing and reading on a FACSCalibur instrument. Data that summarizes the ability of unlabeled antibodies (10, 1, 0.1 μg/ml) to compete with labeled 21H3RK for binding to human DLL4 is included in FIG. 3. Additional data that summarizes the ability of unlabeled antibodies to compete with labeled 21H3RK and 4B4 for binding to human DLL4 is included in Table 22.

In test [4] the target is T3, full length human DLL4. The test can be described thus: FACS titration, HEK293 cells with human DLL4. In a few lines:
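Antibody titration on HEK293 cells expressing full-length human DLL4, detected with anti-human IgG-Fc-Cy5 plus 7AAD for 30 minutes at 4° C. by flow cytometry. KD estimated by nonlinear fit of mean fluorescence vs total mAb concentration, with receptor number, background and proportionality constant floating.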

Test [5] deals with DLL4 extracellular domain (R&D systems, catalog #1506-D4/CF) (UniProt Q9NR61 27-529, limits assumed). As to the kind of experiment: cell-based or functional assay.
Sequence of DLL4 extracellular domain (R&D systems, catalog #1506-D4/CF) (Q9NR61 27-529 limits assumed): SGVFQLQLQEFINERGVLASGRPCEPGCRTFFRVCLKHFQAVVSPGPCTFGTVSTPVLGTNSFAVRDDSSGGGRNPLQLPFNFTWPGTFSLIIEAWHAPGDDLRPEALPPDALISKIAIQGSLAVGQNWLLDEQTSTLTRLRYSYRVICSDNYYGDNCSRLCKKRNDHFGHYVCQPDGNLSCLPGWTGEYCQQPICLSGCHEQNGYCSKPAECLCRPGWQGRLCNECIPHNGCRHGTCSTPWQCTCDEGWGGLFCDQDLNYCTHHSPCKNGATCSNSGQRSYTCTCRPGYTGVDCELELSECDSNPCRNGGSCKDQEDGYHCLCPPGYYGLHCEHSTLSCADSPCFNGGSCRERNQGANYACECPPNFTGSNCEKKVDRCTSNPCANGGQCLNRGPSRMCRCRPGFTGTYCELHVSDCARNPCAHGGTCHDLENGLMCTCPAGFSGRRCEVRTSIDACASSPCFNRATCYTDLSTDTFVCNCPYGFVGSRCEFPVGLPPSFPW
The target of test [6] is T3, full length human DLL4. The test can be described thus: FMAT competition, supernatant vs Alexa-647 human Notch1/Fc, 293T cells with human DLL4. In a few lines:
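293T cells transiently expressing full-length human DLL4, mixed with untransfected cells, preincubated with hybridoma supernatant for 1 h at 4 °C, then Alexa-647 Notch1/Fc (final 6.7 ng/ml) added for 3 h at 4 °C; bound ligand read by FMAT. % inhibition scaled between non-DLL4-binding supernatants and saturating unlabeled Notch1/Fc.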

T1 sequence (P78504 34-1218): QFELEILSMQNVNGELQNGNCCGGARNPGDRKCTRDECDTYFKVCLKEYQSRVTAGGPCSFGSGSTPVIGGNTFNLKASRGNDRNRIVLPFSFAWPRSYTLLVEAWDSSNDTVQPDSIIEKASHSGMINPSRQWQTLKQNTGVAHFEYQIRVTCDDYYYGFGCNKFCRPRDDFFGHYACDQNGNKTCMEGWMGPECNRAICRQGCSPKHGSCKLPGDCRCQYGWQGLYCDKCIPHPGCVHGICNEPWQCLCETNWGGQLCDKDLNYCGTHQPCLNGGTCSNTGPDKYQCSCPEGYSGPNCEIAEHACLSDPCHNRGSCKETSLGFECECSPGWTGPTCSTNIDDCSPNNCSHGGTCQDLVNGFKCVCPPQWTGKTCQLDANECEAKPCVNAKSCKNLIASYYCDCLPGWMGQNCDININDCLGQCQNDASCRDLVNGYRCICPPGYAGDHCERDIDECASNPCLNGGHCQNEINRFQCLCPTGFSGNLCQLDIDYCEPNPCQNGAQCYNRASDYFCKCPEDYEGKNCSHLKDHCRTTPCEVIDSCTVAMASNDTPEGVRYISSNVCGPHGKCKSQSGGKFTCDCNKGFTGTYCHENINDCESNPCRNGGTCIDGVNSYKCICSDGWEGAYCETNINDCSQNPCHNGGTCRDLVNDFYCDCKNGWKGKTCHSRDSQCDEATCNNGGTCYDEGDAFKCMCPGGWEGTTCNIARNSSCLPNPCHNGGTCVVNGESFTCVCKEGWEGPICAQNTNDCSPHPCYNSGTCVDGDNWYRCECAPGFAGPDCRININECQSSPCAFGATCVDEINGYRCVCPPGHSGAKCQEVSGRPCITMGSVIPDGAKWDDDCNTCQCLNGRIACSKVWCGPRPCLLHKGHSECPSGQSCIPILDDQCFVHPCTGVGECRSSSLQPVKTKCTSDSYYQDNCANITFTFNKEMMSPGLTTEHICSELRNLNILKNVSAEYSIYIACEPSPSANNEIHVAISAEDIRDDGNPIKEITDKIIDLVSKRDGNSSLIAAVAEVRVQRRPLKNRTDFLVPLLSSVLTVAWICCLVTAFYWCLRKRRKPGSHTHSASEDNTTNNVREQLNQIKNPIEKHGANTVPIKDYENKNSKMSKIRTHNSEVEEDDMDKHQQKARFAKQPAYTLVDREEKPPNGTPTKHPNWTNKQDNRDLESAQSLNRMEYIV
T3 sequence (Q9NR61 27-685): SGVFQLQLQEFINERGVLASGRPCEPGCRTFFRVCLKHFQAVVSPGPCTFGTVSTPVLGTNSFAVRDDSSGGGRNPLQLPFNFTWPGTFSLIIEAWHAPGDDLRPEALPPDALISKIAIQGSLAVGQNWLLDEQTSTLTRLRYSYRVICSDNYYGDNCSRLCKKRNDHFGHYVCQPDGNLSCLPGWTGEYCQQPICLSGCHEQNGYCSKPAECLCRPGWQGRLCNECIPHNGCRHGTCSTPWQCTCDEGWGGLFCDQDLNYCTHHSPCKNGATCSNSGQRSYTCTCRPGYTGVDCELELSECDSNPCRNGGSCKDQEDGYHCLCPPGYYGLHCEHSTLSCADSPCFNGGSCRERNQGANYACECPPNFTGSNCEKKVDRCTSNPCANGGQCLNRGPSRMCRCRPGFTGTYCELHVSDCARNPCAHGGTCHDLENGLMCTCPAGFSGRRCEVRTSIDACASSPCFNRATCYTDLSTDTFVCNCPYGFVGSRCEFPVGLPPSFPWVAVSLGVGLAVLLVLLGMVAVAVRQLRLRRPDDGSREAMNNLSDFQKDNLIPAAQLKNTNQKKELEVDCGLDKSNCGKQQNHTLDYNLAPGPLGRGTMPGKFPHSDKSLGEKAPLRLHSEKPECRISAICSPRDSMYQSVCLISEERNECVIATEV

B1: 21H3 (antibody, IgG4, V domains shown)
VH: QVQLVQSGAEVKKPGASVKVSCKASGYTFTNYGITWVRQAPGQGPEWMGWISAYNGNTNYAQKLQDRVTVTTDTSTSTAYMELRSLRSDDTAVYYCARDRVPRIPVTTEAFDIWGQGTMVTVSS
VL: QSVLTQPPSASGTPGQRVTISCSGSSSNIGSYFVYWYQQLPGTAPKLLIYRNNQRPSGVPDRFSGSESGTSASLAISGLRSEDEADYYCAAWDDSLSGHWVFGGGTRLTVL
notes: Fully human; used for IgG4 rows and where no isotype is printed; also called 21H3 IgG4
For the molecule B1, the Jagged1/mock ratio in test [1] came to 1.12. For the same molecule, in test [2], binding was characterised by a dissociation constant (Kd) of 481 pM; the koff (as a rule, the rate constant with which the complex falls apart) was 0.000152 s⁻¹; the kon (as a rule, the second-order rate constant of association) was found to be 317000 M⁻¹ s⁻¹. For the same molecule, in test [3], the IC50 (as a rule, the point on the concentration scale where inhibition reaches its midpoint) worked out at 0.248 µg/mL. In test [4], the Kd – broadly, the equilibrium constant for the complex coming apart – worked out at 359 pM. In test [5], the “% inhibition 1 µg/ml, AVERAGE (HUVEC proliferation on coated DLL4)” value (from here on “% inhibition 1 µg/ml, AVERAGE”) is 93%; the “% inhibition 1 µg/ml, N = 1 (HUVEC proliferation on coated DLL4)” value worked out at 86%; the “% inhibition 1 µg/ml, N = 2 (HUVEC proliferation on coated DLL4)” value was found to be 99%; the “% inhibition 10 µg/ml, AVERAGE (HUVEC proliferation on coated DLL4)” value (from here on “% inhibition 10 µg/ml, AVERAGE”) turned out to be 89%. For the same molecule, in test [5], the “% inhibition 10 µg/ml, N = 1 (HUVEC proliferation on coated DLL4)” value is 88% and the “% inhibition 10 µg/ml, N = 2 (HUVEC proliferation on coated DLL4)” value came to 89%.

B2: 2H10 (antibody, IgG4, V domains shown)
VH: QVQLVESGGGVVQPGRSLRLSCAASGFTFSRHGMHWVRQAPGKGLEWVAVVWFDGSNIYYADSVKGRFTISRDNSKNTLYLQMNSLRAEDTAMYYCARDSRIAAADYWGQGTLVTVSS
VL: SYELTQPPSVSVSPGQTVSITCSGDKLGDKYVCWYQQKPGQSPVLVIYQESKRPSGIPERFSGSSSGNTATLTISGTQAMDEADYYCQTWDSSLVVFGGGTKLTVL
notes: Fully human; used for IgG4 rows and where no isotype is printed; also called 2H10 IgG4
For the molecule B2, the Jagged1/mock ratio in test [1] amounted to 1.26. Also, in test [6], the “% inhibition n = 1” value is 107%, the “% inhibition n = 2” value stood at 150%, the “% inhibition n = 3” value came to 124% and the Mean % inhibition is 127%. In test [2], this molecule showed a Kd of 981 pM, a koff of 4.02e-05 s⁻¹ and a kon of 40900 M⁻¹ s⁻¹. Besides, the IC50 in test [3] stood at 0.723 µg/mL. In addition, binding in test [4] was put at a Kd of 882 pM. Moreover, in test [5], the “% inhibition 1 µg/ml, AVERAGE” value was 93%; the “% inhibition 1 µg/ml, N = 1 (HUVEC proliferation on coated DLL4)” value amounted to 98%; the “% inhibition 1 µg/ml, N = 2 (HUVEC proliferation on coated DLL4)” value was 87%; the “% inhibition 10 µg/ml, AVERAGE” value worked out at 103%. In test [5], the “% inhibition 10 µg/ml, N = 1 (HUVEC proliferation on coated DLL4)” value came out at 110% and the “% inhibition 10 µg/ml, N = 2 (HUVEC proliferation on coated DLL4)” value turned out to be 95%.

B3: 9G8 (antibody, IgG4, V domains shown)
VH: QLQLQESGPGLVKPSETLSLSCTVSGGSISSSSSYWGLIRQPPGKGLEWIGSIYYSGSTYYSPSLKSRVSISVDTSKNQFSLKLSSVTAADTAVYFCARQGYGGHPDVFDIWGQGTMVTVSS
VL: SSELTQSPSVSVSPGQTARITCSGDKLGDVYVCWYQQKTGQSPVLVIYEDTKRPSGIPERFSGSNSGNTATLTISGTQVMDEADYYCQAWDSTTAVIFGGGTKLTVL
notes: Fully human; used for IgG4 rows and where no isotype is printed; also called 9G8 IgG4
B3: in test [1], the Jagged1/mock ratio was determined as 1.07. Further, in test [6], the “% inhibition n = 1” value was determined as 112%, the “% inhibition n = 2” value was 98%, the “% inhibition n = 3” value worked out at 143% and the Mean % inhibition worked out at 118%. For the same molecule, in test [2], the Kd stood at 132 pM, the koff came to 1.36e-05 s⁻¹ and the kon came to 103000 M⁻¹ s⁻¹. The concentration for half-maximal inhibition (IC50) in test [3] was found to be 0.596 µg/mL. This molecule also had a Kd in test [4] of 999 pM. In test [5], the “% inhibition 1 µg/ml, AVERAGE” value was 62%; the “% inhibition 1 µg/ml, N = 1 (HUVEC proliferation on coated DLL4)” value was found to be 52%; the “% inhibition 1 µg/ml, N = 2 (HUVEC proliferation on coated DLL4)” value was found to be 71%; the “% inhibition 10 µg/ml, AVERAGE” value was 77%. In test [5], the “% inhibition 10 µg/ml, N = 1 (HUVEC proliferation on coated DLL4)” value was 72% and the “% inhibition 10 µg/ml, N = 2 (HUVEC proliferation on coated DLL4)” value was 82%.

B4: 4B4 (antibody, IgG4, V domains shown)
VH: QVLLIQSGAEVKKPGASVQVSCKASGYTFTNYGVIWVRQAPGQGLEYMGWISAYNGNTNYAQKLQDRVTMTSDTSTTTAYMELRSLRSDDTAVYYCARELGSSFDYWGQGTLVTVSS
VL: SYELTQPPSVSVSPGQTARITCSGDALPKKYAYWYQQKSGQAPVLVIYEDIKRPSGIPERFSGSSSGTMATLTISGAQVEDEADYYCFSTDNSGDHSVFGGGTKLTVL
notes: Fully human; used for IgG4 rows and where no isotype is printed; also called 4B4 IgG4; 4B4.1
On to B4, for which, in test [1], the Jagged1/mock ratio was found to be 1.09. Further, in test [6], the Mean % inhibition was 121%. In test [2], this molecule displayed a Kd of 283 pM, a koff of 3.33e-05 s⁻¹ and an on-rate (kon) of 118000 M⁻¹ s⁻¹. In test [3], this molecule returned an IC50 of 0.379 µg/mL. The Kd in test [4] stood at 516 pM. Besides, in test [5], the “% inhibition 1 µg/ml, AVERAGE” value is 93%; the “% inhibition 1 µg/ml, N = 1 (HUVEC proliferation on coated DLL4)” value was 101%; the “% inhibition 1 µg/ml, N = 2 (HUVEC proliferation on coated DLL4)” value came to 84%; the “% inhibition 10 µg/ml, AVERAGE” value came to 97%. In test [5], the “% inhibition 10 µg/ml, N = 1 (HUVEC proliferation on coated DLL4)” value was 102% and the “% inhibition 10 µg/ml, N = 2 (HUVEC proliferation on coated DLL4)” value was 92%.

These data come from US20100196385A1 (AstraZeneca / MedImmune, published 2010).
